Data on 94 variants can be found in the supplement of paper PMC10567573.

First the molecules themselves.
B1: CAMK2A (parent)
chain: CIQQILEAVLHCHQMGVVHRDLKP
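Also: lentivirally expressed fusions sorted by FACS into six bins by GFP to DsRed ratio, PSI derived from sequencing read proportions per bin multiplied by bin number.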

The data set covers variants of B1. Kind of data set: protein stability index of a GFP-peptide fusion (GPS, HEK-293T) (PSI 1-6); higher = more stable. Conditions: c terminus: a fixed tail appended.
For the variant CIQQIAEAVLHCHQMGVVHRDLKP [L6A], the protein stability index was 1.4.
As for CIQQIGEAVLHCHQMGVVHRDLKP [L6G], the protein stability index is 2.14.
For the variant CIQQIWEAVLHCHQMGVVHRDLKP [L6W], the protein stability index stood at 1.87.
Consider CIQQIEEAVLHCHQMGVVHRDLKP [L6E], for which the protein stability index was found to be 2.44.
CIQQIFEAVLHCHQMGVVHRDLKP [L6F]: the protein stability index is 1.07.
As for CIQQIIEAVLHCHQMGVVHRDLKP [L6I], the protein stability index was found to be 2.64.
The value for CIQQIHEAVLHCHQMGVVHRDLKP [L6H] was 1.77; that for CIQQIDEAVLHCHQMGVVHRDLKP [L6D] was 2.93.
On to CIQQIQEAVLHCHQMGVVHRDLKP [L6Q], for which the protein stability index worked out at 2.09.
With CIQQIREAVLHCHQMGVVHRDLKP [L6R], the protein stability index is 1.97.
Take CIQQIMEAVLHCHQMGVVHRDLKP [L6M]: the protein stability index was determined as 2.75.
Consider CIQQINEAVLHCHQMGVVHRDLKP [L6N], for which the protein stability index is 1.98.
On to CIQQIKEAVLHCHQMGVVHRDLKP [L6K], for which the protein stability index came out at 2.4.
The result for CIQQIPEAVLHCHQMGVVHRDLKP [L6P] reads 1.83.
The value for CIQQIVEAVLHCHQMGVVHRDLKP [L6V] was 2.88.
For the variant CIQQIYEAVLHCHQMGVVHRDLKP [L6Y], the protein stability index stood at 2.13.
Take TIQQILEAVLHCHQMGVVHRDLKP [C1T]: the protein stability index amounted to 2.82.
The result for LIQQILEAVLHCHQMGVVHRDLKP [C1L] reads 3.19.
The value for QIQQILEAVLHCHQMGVVHRDLKP [C1Q] was 1.13.
As to KIQQILEAVLHCHQMGVVHRDLKP [C1K], the protein stability index was 2.82.
In the case of FIQQILEAVLHCHQMGVVHRDLKP [C1F], the protein stability index stood at 3.55.
Regarding YIQQILEAVLHCHQMGVVHRDLKP [C1Y], the protein stability index amounted to 2.37.
WIQQILEAVLHCHQMGVVHRDLKP [C1W]: the protein stability index came out at 1.78.
For HIQQILEAVLHCHQMGVVHRDLKP [C1H], the protein stability index was 1.56.
The value for VIQQILEAVLHCHQMGVVHRDLKP [C1V] was 2.22; that for RIQQILEAVLHCHQMGVVHRDLKP [C1R] was 2.22.
On to MIQQILEAVLHCHQMGVVHRDLKP [C1M], for which the protein stability index worked out at 4.15.
The value for IIQQILEAVLHCHQMGVVHRDLKP [C1I] was 3.46; that for DIQQILEAVLHCHQMGVVHRDLKP [C1D] was 2.12.
Turning to CIIQILEAVLHCHQMGVVHRDLKP [Q3I], the protein stability index came out at 2.81.
The result for CITQILEAVLHCHQMGVVHRDLKP [Q3T] reads 3.42; that for CIFQILEAVLHCHQMGVVHRDLKP [Q3F], 2.24.
CIVQILEAVLHCHQMGVVHRDLKP [Q3V]: the protein stability index came to 3.85.
With CIGQILEAVLHCHQMGVVHRDLKP [Q3G], the protein stability index worked out at 3.91.
As to CIDQILEAVLHCHQMGVVHRDLKP [Q3D], the protein stability index is 3.17.
On to CIAQILEAVLHCHQMGVVHRDLKP [Q3A], for which the protein stability index was found to be 3.85.
The value for CIPQILEAVLHCHQMGVVHRDLKP [Q3P] was 3.19.
CIHQILEAVLHCHQMGVVHRDLKP [Q3H]: the protein stability index turned out to be 3.11.
The value for CICQILEAVLHCHQMGVVHRDLKP [Q3C] was 3.04.
Regarding CIKQILEAVLHCHQMGVVHRDLKP [Q3K], the protein stability index came to 2.77.
For CIYQILEAVLHCHQMGVVHRDLKP [Q3Y], the protein stability index is 3.67.
Take CIQQHLEAVLHCHQMGVVHRDLKP [I5H]: the protein stability index is 2.44.
In the case of CIQQCLEAVLHCHQMGVVHRDLKP [I5C], the protein stability index was 3.12.
With CIQQRLEAVLHCHQMGVVHRDLKP [I5R], the protein stability index came out at 2.2.
The value for CIQQALEAVLHCHQMGVVHRDLKP [I5A] was 4.67; that for CIQQDLEAVLHCHQMGVVHRDLKP [I5D] was 2.65; that for CIQQFLEAVLHCHQMGVVHRDLKP [I5F] was 2.79.
The value for CIQQPLEAVLHCHQMGVVHRDLKP [I5P] was 1.81; that for CIQQSLEAVLHCHQMGVVHRDLKP [I5S] was 1.69; that for CIQQELEAVLHCHQMGVVHRDLKP [I5E] was 2.3.
On to CIQQMLEAVLHCHQMGVVHRDLKP [I5M], for which the protein stability index came out at 4.53.
For CIQQWLEAVLHCHQMGVVHRDLKP [I5W], the protein stability index came to 2.01.
Consider CIQQQLEAVLHCHQMGVVHRDLKP [I5Q], for which the protein stability index amounted to 1.73.
Take CIQQKLEAVLHCHQMGVVHRDLKP [I5K]: the protein stability index came to 2.16.
Consider CIQQTLEAVLHCHQMGVVHRDLKP [I5T], for which the protein stability index was found to be 2.89.
As for CIQQNLEAVLHCHQMGVVHRDLKP [I5N], the protein stability index was 1.71.
Regarding CRQQILEAVLHCHQMGVVHRDLKP [I2R], the protein stability index came out at 2.21.
As to CSQQILEAVLHCHQMGVVHRDLKP [I2S], the protein stability index worked out at 1.56.
Consider CWQQILEAVLHCHQMGVVHRDLKP [I2W], for which the protein stability index amounted to 1.35.
The result for CAQQILEAVLHCHQMGVVHRDLKP [I2A] reads 2.45; that for CHQQILEAVLHCHQMGVVHRDLKP [I2H], 1.68.
CTQQILEAVLHCHQMGVVHRDLKP [I2T]: the protein stability index was 1.79.
Regarding CGQQILEAVLHCHQMGVVHRDLKP [I2G], the protein stability index was 1.99.
The result for CDQQILEAVLHCHQMGVVHRDLKP [I2D] reads 2.09; that for CEQQILEAVLHCHQMGVVHRDLKP [I2E], 1.78.
The result for CPQQILEAVLHCHQMGVVHRDLKP [I2P] reads 2.07.
Regarding CCQQILEAVLHCHQMGVVHRDLKP [I2C], the protein stability index stood at 3.15.
The result for CVQQILEAVLHCHQMGVVHRDLKP [I2V] reads 2.74; that for CNQQILEAVLHCHQMGVVHRDLKP [I2N], 1.32; that for CQQQILEAVLHCHQMGVVHRDLKP [I2Q], 1.72.
In the case of CKQQILEAVLHCHQMGVVHRDLKP [I2K], the protein stability index amounted to 1.22.
In the case of CIQQILQAVLHCHQMGVVHRDLKP [E7Q], the protein stability index amounted to 2.55.
Turning to CIQQILIAVLHCHQMGVVHRDLKP [E7I], the protein stability index stood at 2.74.
CIQQILCAVLHCHQMGVVHRDLKP [E7C]: the protein stability index is 3.72.
Consider CIQQILGAVLHCHQMGVVHRDLKP [E7G], for which the protein stability index is 4.42.
On to CIQQILRAVLHCHQMGVVHRDLKP [E7R], for which the protein stability index came to 2.81.
CIQQILDAVLHCHQMGVVHRDLKP [E7D]: the protein stability index amounted to 3.99.
On to CIQQILFAVLHCHQMGVVHRDLKP [E7F], for which the protein stability index amounted to 2.42.
Regarding CIQQILAAVLHCHQMGVVHRDLKP [E7A], the protein stability index turned out to be 2.02.
As to CIQQILMAVLHCHQMGVVHRDLKP [E7M], the protein stability index came out at 4.26.
On to CIQQILSAVLHCHQMGVVHRDLKP [E7S], for which the protein stability index amounted to 2.57.
The result for CIQQILKAVLHCHQMGVVHRDLKP [E7K] reads 2.25.
Consider CIQHILEAVLHCHQMGVVHRDLKP [Q4H], for which the protein stability index came to 2.13.
For the variant CIQTILEAVLHCHQMGVVHRDLKP [Q4T], the protein stability index amounted to 2.74.
Consider CIQGILEAVLHCHQMGVVHRDLKP [Q4G], for which the protein stability index worked out at 5.02.
For CIQPILEAVLHCHQMGVVHRDLKP [Q4P], the protein stability index was 1.69.
Take CIQYILEAVLHCHQMGVVHRDLKP [Q4Y]: the protein stability index was determined as 2.07.
On to CIQNILEAVLHCHQMGVVHRDLKP [Q4N], for which the protein stability index stood at 2.68.
Turning to CIQRILEAVLHCHQMGVVHRDLKP [Q4R], the protein stability index is 2.94.
The value for CIQLILEAVLHCHQMGVVHRDLKP [Q4L] was 2.55.
With CIQDILEAVLHCHQMGVVHRDLKP [Q4D], the protein stability index amounted to 2.04.
As for CIQKILEAVLHCHQMGVVHRDLKP [Q4K], the protein stability index is 1.93.
Take CIQMILEAVLHCHQMGVVHRDLKP [Q4M]: the protein stability index is 1.92.
The result for CIQAILEAVLHCHQMGVVHRDLKP [Q4A] reads 1.96.
